Like-named read-outs stand apart in the source and are kept apart here.
Experiments:
Test in all cases: EMSA
[1] = target: T1, Slx5-Slx8 complex, Slx8 subunit;Slx5 (Saccharomyces cerevisiae;Saccharomyces …, UniProt P40072;P32828 1-274;1-619, |)
T1 sequence 1: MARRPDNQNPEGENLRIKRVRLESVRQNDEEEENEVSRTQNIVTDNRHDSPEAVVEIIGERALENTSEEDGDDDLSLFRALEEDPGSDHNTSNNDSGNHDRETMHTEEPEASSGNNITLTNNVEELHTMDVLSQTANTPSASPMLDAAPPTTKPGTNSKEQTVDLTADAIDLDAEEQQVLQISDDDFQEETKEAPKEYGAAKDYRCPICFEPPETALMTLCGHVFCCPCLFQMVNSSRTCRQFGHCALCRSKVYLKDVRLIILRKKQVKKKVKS
T1 sequence 2: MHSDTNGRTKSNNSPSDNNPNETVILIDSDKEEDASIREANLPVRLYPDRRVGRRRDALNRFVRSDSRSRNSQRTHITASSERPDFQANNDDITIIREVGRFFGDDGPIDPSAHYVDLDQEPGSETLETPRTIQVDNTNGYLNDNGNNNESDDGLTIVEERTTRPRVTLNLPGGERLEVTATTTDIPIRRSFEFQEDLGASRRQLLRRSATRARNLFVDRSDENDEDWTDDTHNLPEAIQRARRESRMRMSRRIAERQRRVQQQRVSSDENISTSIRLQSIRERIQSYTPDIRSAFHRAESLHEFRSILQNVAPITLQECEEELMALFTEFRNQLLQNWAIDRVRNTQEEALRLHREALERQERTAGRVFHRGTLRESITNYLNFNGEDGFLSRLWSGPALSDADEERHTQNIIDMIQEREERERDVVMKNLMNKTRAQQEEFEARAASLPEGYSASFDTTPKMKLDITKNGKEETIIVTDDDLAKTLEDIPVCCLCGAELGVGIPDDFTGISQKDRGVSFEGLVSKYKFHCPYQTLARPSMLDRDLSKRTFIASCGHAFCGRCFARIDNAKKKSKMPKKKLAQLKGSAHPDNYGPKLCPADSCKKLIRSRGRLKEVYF

[2] = target: T2, Slx5 (Saccharomyces cerevisiae, UniProt P32828 1-619)
T2 sequence: T1 sequence 2

[3] = target: T3, Slx8 (Saccharomyces cerevisiae, UniProt P40072 1-274)
T3 sequence: T1 sequence 1

[4] = target: T1, Slx5-Slx8 complex, Slx8 subunit;Slx5; remark: listed apart in the source
[5] = target: T1, Slx5-Slx8 complex, Slx8 subunit;Slx5; remark: listed apart in the source
[6] = target: T1, Slx5-Slx8 complex, Slx8 subunit;Slx5; remark: listed apart in the source
[7] = target: T1, Slx5-Slx8 complex, Slx8 subunit;Slx5; remark: listed apart in the source

GACGCTGCCGAATTCTGGCGTTAGGAGATACCGATAAGCTTCGGCTTAA (ssDNA) [49 nt ssDNA (888)]
binding result [1]: no binding

B1: 45 bp dsDNA (1315/1316) (dsDNA)
DNA 1: GGGTCAACGTGGGCAAAGATGTCCTAGCAAGCCAGAATTCGGCAG
DNA 2: CTGCCGAATTCTGGCTTGCTAGGACATCTTTGCCCACGTTGACCC
binding result [2]: no binding
apparent K (half saturation) [3]: ~8 pmol (in reaction; standard volume 20 uL)
apparent K (half saturation) [4]: < 0.5 pmol (in reaction; standard volume 20 uL)

B2: 90 bp dsDNA (1317/1319) (dsDNA)
DNA 1: GATCCGAATTCTGGCTTGCTAGGACATCTTTGCCCACGTTGACCCGGGTTGGCGTTAGGAGATAGTCAGTTATAGCTGCGGCTGCTAAGG
DNA 2: GATCCCTTAGCAGCCGCAGCTATAACTGACTATCTCCTAACGCCAACCCGGGTCAACGTGGGCAAAGATGTCCTAGCAAGCCAGAATTCG
binding result [5]: binds

B3: 30 bp dsDNA (1313/1314) (dsDNA)
DNA 1: TGGCGTTAGGAGATACCGATAAGCTTCGGC
DNA 2: GCCGAAGCTTATCGGTATCTCCTAACGCCA
binding result [6]: binds

B4: 15 bp dsDNA (1312/1320) (dsDNA)
DNA 1: TATCTCCTAACGCCA
DNA 2: TGGCGTTAGGAGATA
binding result [7]: no binding
